The text below walks through data of patent US20110212094A1 (AbbVie / Abbott, published 2011).

T1: Recombinant Human SOST (human, UniProt Q9BQB4 24-213)
T1 construct: R&D reagent in Biacore; also called sclerostin; Human sclerostin (Abbott PR-1261069)
T1 sequence (looked up): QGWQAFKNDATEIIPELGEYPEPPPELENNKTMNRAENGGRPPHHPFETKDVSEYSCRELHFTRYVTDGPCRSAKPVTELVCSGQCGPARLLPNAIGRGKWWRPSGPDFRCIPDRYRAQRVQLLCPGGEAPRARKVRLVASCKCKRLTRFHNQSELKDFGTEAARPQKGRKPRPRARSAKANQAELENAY

B1: AB214 (antibody, human IgG1, kappa, V domains shown)
VH: EVKLEESGGGLVQPGGSMKLSCVASGFIFSNHWMNWVRQSPEKGLEWVAEIRSKSINSATHYAESVKGRFTISRDDSKSAVYLQMTDLRTEDTGVYYCSRNYYGSTYDYWGQGTTLTVSS
VL: DILLTQSPAILSVSPGERVSFSCRASQFVGSSIHWYQQRTNGSPRLLIKYASESMSGIPSRFSGSGSGTDFTLSINTVESEDIADYYCQESHSWPFTFGSGTNLEVKR
notes: Parent anti-TNF antibody; also called AB214VH
B2: AB218 (antibody, human IgG1, kappa, V domains shown)
VH: EVQLVESGGGLIQPGGSLRLSCAASGFTVSRNYMSWVRQAPGKGLEWVSVIYSGDRTYYADSVKGRFTISRDNSKNTLYLQMNSLRAEDTAVYYCARGEGGFDYWGQGTLVTVSS
VL: EIVMTQSPATLSVSPGERATLSCRASQSVSSNLAWYQQKPGQAPRLLIHGASIRATGLPARFSGSGSGTEFTLTISSLQSEDFAVYYCQQYNYWWTFGQGTKVEIKR
notes: Parent anti-TNF antibody; also called AB218VH
B3: DVD1230 (bispecific antibody, human IgG1, kappa)
heavy: not shown
light: EIVLTQSPATLSLSPGERATLSCRASQSVYSYLAWYQQKPGQAPRLLIYDASNRATGIPARFSGSGSGTDFTLTISSLEPEDFAVYYCQQRSNWPPFTFGPGTKVDIKRTVAAPDVQMIQSPSSLSASLGDIVTMTCQASQGTSINLNWFQQKPGKAPKLLIYGSSNLEDGVPSRFSGSRYGTDFTLTISSLEDEDLATYFCLQHSYLPYTFGGGTKLEIKRTVAAPSVFIFPPSDEQLKSGTASVVCLLNNFYPREAKVQWKVDNALQSGNSQESVTEQDSKDSTYSLSSTLTLSKADYEKHKVYACEVTHQGLSSPVTKSFNRGEC
notes: constant regions from vectors V1/V2; also called DVD1230H; DVD1230L
B4: DVD1227 (bispecific antibody, human IgG1, kappa)
heavy: not shown
light: DVQMIQSPSSLSASLGDIVTMTCQASQGTSINLNWFQQKPGKAPKLLIYGSSNLEDGVPSRFSGSRYGTDFTLTISSLEDEDLATYFCLQHSYLPYTFGGGTKLEIKRTVAAPDIVMTQSHKFMSTTVGDRVSITCKASQAVSSAVAWYQQKPGQSPKLLIYWASTRHTGVPDRFTGSGSVTDFTLTIHNLQAEDLALYYCQQHYSTPFTFGSGTKLEIKRTVAAPSVFIFPPSDEQLKSGTASVVCLLNNFYPREAKVQWKVDNALQSGNSQESVTEQDSKDSTYSLSSTLTLSKADYEKHKVYACEVTHQGLSSPVTKSFNRGEC
notes: constant regions from vectors V1/V2; also called DVD1227H; DVD1227L
B5: AB213 (antibody, human IgG1, kappa, V domains shown)
VH: QVQLKESGPGLVAPSQSLSITCTVSGFSLTDYGVNWVRQPPGKGLEWLGMIWGDGSTDYDSTLKSRLSISKDNSKSQIFLKMNSLQTDDTARYYCAREWHHGPVAYWGQGTLVTVSA
VL: DIVMTQSHKFMSTTVGDRVSITCKASQAVSSAVAWYQQKPGQSPKLLIYWASTRHTGVPDRFTGSGSVTDFTLTIHNLQAEDLALYYCQQHYSTPFTFGSGTKLEIKR
notes: Parent anti-TNF antibody; also called AB213VH
B6: AB215 (antibody, human IgG1, kappa, V domains shown)
VH: QVQLVESGGGVVQPGRSLRLSCAASGFTFSSYAMHWVRQAPGNGLEWVAFMSYDGSNKYAKDSVKGRFTISRDNSKNTLYLQMNSLRAEDTAVYYCARDRGIAAGGNYYYYGMDVWGQGTTVTVSS
VL: EIVLTQSPATLSLSPGERATLSCRASQSVYSYLAWYQQKPGQAPRLLIYDASNRATGIPARFSGSGSGTDFTLTISSLEPEDFAVYYCQQRSNWPPFTFGPGTKVDIKR
notes: Parent anti-TNF antibody; also called AB215VH
B7: AB217 (antibody, human IgG1, kappa, V domains shown)
VH: QVQLVESGGGVVQPGRSLRLSCAASGFTFSSYDMHWVRQAPGKGLEWVAVIWSDGSIKYYADSVKGRFTISRDNSKNTLYLQMNSLRAEDTAVYYCAREVESAMGGFYYNGMDVWGQGTTVTVSS
VL: DIQMTQSPSSLSASVGDRVTITCRASQGIRIDLGWYQQKPGKAPKRLIYAASTLQSGVPSRFSGSGSGTEFIFTISSLQPEDFASYYCLQHKSYPLTFGGGTKVEIKR
notes: Parent anti-TNF antibody; also called AB217VH
B8: DVD1248 (bispecific antibody, human IgG1, kappa)
heavy: not shown
light: DIQMTQSPSSLSASVGDRVTITCRASQGIRIDLGWYQQKPGKAPKRLIYAASTLQSGVPSRFSGSGSGTEFIFTISSLQPEDFASYYCLQHKSYPLTFGGGTKVEIKRTVAAPDVQMIQSPSSLSASLGDIVTMTCQASQGTSINLNWFQQKPGKAPKLLIYGSSNLEDGVPSRFSGSRYGTDFTLTISSLEDEDLATYFCLQHSYLPYTFGGGTKLEIKRTVAAPSVFIFPPSDEQLKSGTASVVCLLNNFYPREAKVQWKVDNALQSGNSQESVTEQDSKDSTYSLSSTLTLSKADYEKHKVYACEVTHQGLSSPVTKSFNRGEC
notes: constant regions from vectors V1/V2; also called DVD1248H; DVD1248L
B9: DVD1229 (bispecific antibody, human IgG1, kappa)
heavy: not shown
light: DVQMIQSPSSLSASLGDIVTMTCQASQGTSINLNWFQQKPGKAPKLLIYGSSNLEDGVPSRFSGSRYGTDFTLTISSLEDEDLATYFCLQHSYLPYTFGGGTKLEIKRTVAAPDILLTQSPAILSVSPGERVSFSCRASQFVGSSIHWYQQRTNGSPRLLIKYASESMSGIPSRFSGSGSGTDFTLSINTVESEDIADYYCQESHSWPFTFGSGTNLEVKRTVAAPSVFIFPPSDEQLKSGTASVVCLLNNFYPREAKVQWKVDNALQSGNSQESVTEQDSKDSTYSLSSTLTLSKADYEKHKVYACEVTHQGLSSPVTKSFNRGEC
notes: constant regions from vectors V1/V2; also called DVD1229H; DVD1229L
B10: DVD1256 (bispecific antibody, human IgG1, kappa)
heavy: not shown
light: EIVMTQSPATLSVSPGERATLSCRASQSVSSNLAWYQQKPGQAPRLLIHGASIRATGLPARFSGSGSGTEFTLTISSLQSEDFAVYYCQQYNYWWTFGQGTKVEIKRTVAAPDVQMIQSPSSLSASLGDIVTMTCQASQGTSINLNWFQQKPGKAPKLLIYGSSNLEDGVPSRFSGSRYGTDFTLTISSLEDEDLATYFCLQHSYLPYTFGGGTKLEIKRTVAAPSVFIFPPSDEQLKSGTASVVCLLNNFYPREAKVQWKVDNALQSGNSQESVTEQDSKDSTYSLSSTLTLSKADYEKHKVYACEVTHQGLSSPVTKSFNRGEC
notes: constant regions from vectors V1/V2; also called DVD1256H; DVD1256L
B11: AB022 (antibody, V domains shown)
VH: EVQLQQSGPELVTPGASVKISCKASGYTFTDHYMSWVKQSHGKSLEWIGDINPYSGETTYNQKFKGTATLTVDKSSSIAYMEIRGLTSEDSAVYYCARDDYDASPFAYWGQGTLVTVSA
VL: DVQMIQSPSSLSASLGDIVTMTCQASQGTSINLNWFQQKPGKAPKLLIYGSSNLEDGVPSRFSGSRYGTDFTLTISSLEDEDLATYFCLQHSYLPYTFGGGTKLEIKR
notes: Parent anti-SOST antibody; also called SOST; AB022VH

One experiment deals with T2, Recombinant Human TNF-α/TNFSF1A (human, UniProt P01375 77-233). Kind of experiment: cell-based or functional assay.
T2 sequence (P01375 77-233 limits assumed): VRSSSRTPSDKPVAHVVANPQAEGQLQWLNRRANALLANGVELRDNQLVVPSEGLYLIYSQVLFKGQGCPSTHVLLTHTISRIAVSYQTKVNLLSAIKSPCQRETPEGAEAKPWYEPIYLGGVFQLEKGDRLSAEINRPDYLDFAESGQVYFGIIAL
Turning to B1, the “TNFα Neutralization Assay EC50 nM (L929 cells)” value was determined as 0.04 nM.
On the same count and under the same terms, the figure for B2 is 0.0345 nM.
On to B3, for which the “N-terminal VD TNFα Neutralization Assay EC50 nM (L929 cells)” value came to 1.05 nM.
B4: the “C-terminal VD TNFα Neutralization Assay EC50 nM (L929 cells)” value was 1.23 nM.
On to B5, for which the “TNFα Neutralization Assay EC50 nM (L929 cells)” value was 0.189 nM.
With B6, the “TNFα Neutralization Assay EC50 nM (L929 cells)” value turned out to be 1.21 nM.
The same measure, in the same setting: the same measure for B7: 0.212 nM.
On to B8, for which the “N-terminal VD TNFα Neutralization Assay EC50 nM (L929 cells)” value stood at 0.006 nM.

Another experiment deals with T2, Recombinant Human TNF-α/TNFSF1A. As to the kind of experiment: Biacore SPR. The method, then: (§1) The BIACORE assay (Biacore, Inc, Piscataway, N.J.) determines the affinity of antibodies or DVD-Ig with kinetic measurements of on-rate and off-rate constants. Binding of antibodies or DVD-Ig to a target antigen (for example, a purified recombinant target antigen) is determined by surface plasmon resonance-based measurements with a Biacore® 1000 or 3000 instrument (Biacore® AB, Uppsala, Sweden) using running HBS-EP (10 mM HEPES [pH 7.4], 150 mM NaCl, 3 mM EDTA, and 0.005% surfactant P20) at 25° C. All chemicals are obtained from Biacore® AB (Uppsala, Sweden) or otherwise from a different source as described in the text. For example, approximately 5000 RU of goat anti-mouse IgG, (Fcγ), fragment specific polyclonal antibody (Pierce Biotechnology Inc, Rockford, Ill.) diluted in 10 mM sodium acetate (pH 4.5) is directly immobilized across a CM5 research grade biosensor chip using a standard amine coupling kit according to manufacturer's instructions and procedures at 25 μg/ml. Unreacted moieties on the biosensor surface are blocked with ethanolamine. Modified carboxymethyl dextran surface in flowcell 2 and 4 is used as a reaction surface. Unmodified carboxymethyl dextran without goat anti-mouse IgG in flow cell 1 and 3 is used as the reference surface. For kinetic analysis, rate equations derived from the 1:1 Langmuir binding model are fitted simultaneously to association and dissociation phases of all eight injections (using global fit analysis) with the use of Biaevaluation 4.0.1 software. Purified antibodies or DVD-Ig are diluted in HEPES-buffered saline for capture across goat anti-mouse IgG specific reaction surfaces. Antibodies or DVD-Ig to be captured as a ligand (25 μg/ml) are injected over reaction matrices at a flow rate of 5 μl/min. The association and dissociation rate constants, kₘ (M⁻¹s⁻¹) and koff (s⁻¹) are determined under a continuous flow rate of 25 μl/min. Rate constants are derived by making kinetic binding measurements at different antigen concentrations ranging from 10-200 nM. The equilibrium dissociation constant (M) of the reaction between antibodies or DVD-Igs and the target antigen is then calculated from the kinetic rate constants by the following formula: KD=koff/kₒₙ. Binding is recorded as a function of time and kinetic rate constants are calculated.
In general terms: SPR reads the build-up and loss of mass on a sensor chip optically.
Consider B1, for which the Kd – broadly, the constant that tells how readily two partners part at equilibrium – was 0.107 nM; the koff (as a rule, the rate constant with which the complex falls apart) is 0.000291 s⁻¹; the kon (commonly the second-order rate constant of association) is 2.73e+06 M⁻¹ s⁻¹.
The like results for B2 were, in that order, 0.0288 nM, 5.15e-05 s⁻¹ and 1.79e+06 M⁻¹ s⁻¹.
Consider B3, for which the Kd is 0.132 nM, the off-rate constant (koff) was 0.000223 s⁻¹ and the kon was found to be 1.69e+06 M⁻¹ s⁻¹.
The like results for B9 were, in that order, 3.6 nM, 0.000398 s⁻¹ and 110000 M⁻¹ s⁻¹.
Turning to B4, the Kd is 0.381 nM, the koff was 4.64e-05 s⁻¹ and the association rate constant (kon) stood at 122000 M⁻¹ s⁻¹.
In the case of B10, the Kd turned out to be 0.0347 nM, the koff is 8.55e-05 s⁻¹ and the kon turned out to be 2.46e+06 M⁻¹ s⁻¹.
For B5, the Kd was found to be 0.0335 nM, the koff stood at 0.000108 s⁻¹ and the kon turned out to be 3.23e+06 M⁻¹ s⁻¹.
The corresponding values for B6 are 0.157 nM, 0.000272 s⁻¹ and 1.74e+06 M⁻¹ s⁻¹.
Take B7: the Kd turned out to be 0.0272 nM, the koff was found to be 5.04e-05 s⁻¹ and the kon came out at 1.85e+06 M⁻¹ s⁻¹.
B8: the dissociation constant (Kd) is 0.021 nM, the off-rate constant (koff) is 5.94e-05 s⁻¹ and the kon is 2.83e+06 M⁻¹ s⁻¹.

In the next experiment the target is T1, Recombinant Human SOST. Kind of experiment: Biacore SPR. How it is done:
as §1
For B11, the Kd stood at 0.0408 nM, the koff came to 0.000396 s⁻¹ and the kon was found to be 9.68e+06 M⁻¹ s⁻¹.
The like results for B3 were, in that order, 4.74 nM, 0.00029 s⁻¹ and 61100 M⁻¹ s⁻¹.
The corresponding values for B9 are 0.0226 nM, 0.00019 s⁻¹ and 8.43e+06 M⁻¹ s⁻¹.
The corresponding values for B4 are 0.03 nM, 0.000211 s⁻¹ and 7.05e+06 M⁻¹ s⁻¹.
Consider B10, for which the Kd came to 1.59 nM, the koff worked out at 0.000365 s⁻¹ and the kon was found to be 230000 M⁻¹ s⁻¹.
The like results for B8 were, in that order, 0.0546 nM, 0.00039 s⁻¹ and 7.14e+06 M⁻¹ s⁻¹.
